Measured values from patent publication US20040005324A1.

Target: purified RSV F glycoprotein (respiratory syncytial virus)
Assay: ELISA on purified F glycoprotein, control Fab
Conditions: scale: reciprocal dilution

Sequence of purified RSV F glycoprotein (respiratory syncytial virus) (P12568 26-109, chain 1 of 2): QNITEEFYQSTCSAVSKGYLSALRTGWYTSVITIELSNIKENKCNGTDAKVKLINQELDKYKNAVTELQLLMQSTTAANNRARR
Sequence of purified RSV F glycoprotein (respiratory syncytial virus) (P12568 137-574, chain 2 of 2): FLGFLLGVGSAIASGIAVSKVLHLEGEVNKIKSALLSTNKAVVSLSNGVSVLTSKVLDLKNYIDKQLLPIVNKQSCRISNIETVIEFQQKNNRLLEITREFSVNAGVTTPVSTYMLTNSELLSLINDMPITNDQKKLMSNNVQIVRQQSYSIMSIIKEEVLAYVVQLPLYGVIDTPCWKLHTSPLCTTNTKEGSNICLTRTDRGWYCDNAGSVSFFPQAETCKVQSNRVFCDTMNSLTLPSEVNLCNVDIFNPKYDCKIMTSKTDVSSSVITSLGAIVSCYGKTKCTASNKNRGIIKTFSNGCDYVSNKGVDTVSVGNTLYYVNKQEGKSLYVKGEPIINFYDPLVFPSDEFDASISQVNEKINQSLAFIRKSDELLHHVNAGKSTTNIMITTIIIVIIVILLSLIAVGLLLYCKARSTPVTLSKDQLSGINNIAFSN

## hepatitis B Fab
  ELISA titer: 2
